# Data: publication PMC4209447
# Experiments:
# [1] = biological target: protein A/G (recombinant fusion protein with protein A and protein G binding sites)
# [2] = biological target: protein A/G (recombinant fusion protein with protein A and protein G binding sites); remark: listed apart in the source
substance,measurement,setting,value
Human IgG protein (antibody),exponential constant of the fit to the association phase (peak wavelength shift),[1],0.000533
same,peak wavelength shift after 80 minutes of injection,[2],6 nm
